Measurements reported in PMC9482650, “Quantitative fragmentomics allow affinity mapping of interactomes” (Nature Communications, 2022).
Substitutions are numbered along the chain they refer to.

T1: APBA1_2, Q02410
T1 sequence (Q02410 742-832, limits assumed, looked up): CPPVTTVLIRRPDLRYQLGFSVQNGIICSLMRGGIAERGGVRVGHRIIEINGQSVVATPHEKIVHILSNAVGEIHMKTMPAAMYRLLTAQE

T2: TJP3_3, O95049
T2 sequence (O95049 375-456, limits assumed, looked up): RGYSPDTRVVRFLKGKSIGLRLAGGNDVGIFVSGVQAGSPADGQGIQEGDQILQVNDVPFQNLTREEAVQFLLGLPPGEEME

T3: LIN7A, O14910
T3 sequence (O14910 103-200, limits assumed, looked up): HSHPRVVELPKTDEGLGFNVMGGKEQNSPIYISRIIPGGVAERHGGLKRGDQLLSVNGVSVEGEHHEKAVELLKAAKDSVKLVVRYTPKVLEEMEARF

T4: GRIP1_5, Q9Y3R0
T4 sequence (Q9Y3R0 568-668, limits assumed, looked up): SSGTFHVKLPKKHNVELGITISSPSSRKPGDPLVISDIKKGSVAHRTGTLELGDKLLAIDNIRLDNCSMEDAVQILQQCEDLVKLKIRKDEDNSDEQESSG

T5: PARD3B_1, Q8TEW8
T5 sequence (Q8TEW8 196-299, limits assumed, looked up): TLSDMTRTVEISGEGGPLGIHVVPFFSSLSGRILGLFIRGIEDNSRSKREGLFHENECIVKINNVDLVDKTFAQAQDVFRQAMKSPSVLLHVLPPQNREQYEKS

T6: RADIL, Q96JH8
T6 sequence (Q96JH8 971-1071, limits assumed, looked up): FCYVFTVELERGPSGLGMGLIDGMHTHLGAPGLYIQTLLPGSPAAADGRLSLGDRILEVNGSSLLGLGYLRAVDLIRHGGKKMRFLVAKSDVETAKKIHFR

T7: SYNJ2BP, P57105
T7 sequence (P57105 8-110, limits assumed, looked up): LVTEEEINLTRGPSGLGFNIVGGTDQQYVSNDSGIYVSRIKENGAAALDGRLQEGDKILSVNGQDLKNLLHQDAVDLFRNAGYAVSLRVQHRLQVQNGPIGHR

T8: SHANK1, Q9Y566
T8 sequence (Q9Y566 658-767, limits assumed, looked up): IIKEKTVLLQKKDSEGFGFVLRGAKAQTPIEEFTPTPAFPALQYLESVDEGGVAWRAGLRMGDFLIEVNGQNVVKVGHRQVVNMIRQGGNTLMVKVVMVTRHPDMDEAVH

T9: DLG3_1, Q92796
T9 sequence (Q92796 125-227, limits assumed, looked up): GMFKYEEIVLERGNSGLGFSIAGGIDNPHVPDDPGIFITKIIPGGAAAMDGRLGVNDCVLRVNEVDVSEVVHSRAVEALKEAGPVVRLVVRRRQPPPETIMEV

T10: LIN7C, Q9NUP9
T10 sequence (Q9NUP9 88-185, limits assumed, looked up): T3 sequence (O14910 103-200, limits assumed, looked up) with D13E, V20I, V40I, E42D, K77Q, D78G, S79K, A96S


Molecular target: Inadl_1, Q8NI35
Assay: holdup assay
Parameters: key: below the threshold = too weak to quantify, mostly under pKd 3.1 to 4
Details: plain residues with an end cap or a label only (N-terminal biotin on a linker: ado-ado)

Chain of Inadl_1, Q8NI35 (Q8NI35 113-229): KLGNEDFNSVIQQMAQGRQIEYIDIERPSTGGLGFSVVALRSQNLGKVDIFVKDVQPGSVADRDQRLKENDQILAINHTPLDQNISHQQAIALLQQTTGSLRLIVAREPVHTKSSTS

pKd	Binder
below the threshold	APIAGFSSFV [SDK2, Q58EX2]
below the threshold	QSYPSKHDYV [CLDN18, P56856]

Molecular target: GRIP2_3, Q9C0E4
Assay: holdup assay
Parameters: key: below the threshold = too weak to quantify, mostly under pKd 3.1 to 4
Details: plain residues with an end cap or a label only (N-terminal biotin on a linker: ado-ado)

Chain of GRIP2_3, Q9C0E4 (Q9C0E4 238-339): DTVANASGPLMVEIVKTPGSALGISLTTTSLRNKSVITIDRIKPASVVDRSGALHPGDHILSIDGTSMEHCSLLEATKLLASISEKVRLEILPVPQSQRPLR

pKd	Binder
below the threshold	APIAGFSSFV [SDK2, Q58EX2]
below the threshold	QSYPSKHDYV [CLDN18, P56856]

Molecular target: MAST1, Q9Y2H9
Assay: holdup assay
Parameters: key: below the threshold = too weak to quantify, mostly under pKd 3.1 to 4
Details: plain residues with an end cap or a label only (N-terminal biotin on a linker: ado-ado)

Chain of MAST1, Q9Y2H9 (Q9Y2H9 962-1065): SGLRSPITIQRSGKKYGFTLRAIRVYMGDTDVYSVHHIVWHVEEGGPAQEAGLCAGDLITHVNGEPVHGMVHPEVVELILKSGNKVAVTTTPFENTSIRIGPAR

pKd	Binder
below the threshold	APIAGFSSFV [SDK2, Q58EX2]
4	QSYPSKHDYV [CLDN18, P56856]

Molecular target: T1, APBA1_2, Q02410
Assay: holdup assay
Parameters: key: below the threshold = too weak to quantify, mostly under pKd 3.1 to 4
Details: plain residues with an end cap or a label only (N-terminal biotin on a linker: ado-ado)

pKd	Binder
4.15	APIAGFSSFV [SDK2, Q58EX2]
4.45	QSYPSKHDYV [CLDN18, P56856]

Molecular target: T2, TJP3_3, O95049
Assay: holdup assay
Parameters: key: below the threshold = too weak to quantify, mostly under pKd 3.1 to 4
Details: plain residues with an end cap or a label only (N-terminal biotin on a linker: ado-ado)

pKd	Binder
3.82	APIAGFSSFV [SDK2, Q58EX2]
4.02	QSYPSKHDYV [CLDN18, P56856]

Molecular target: T3, LIN7A, O14910
Assay: holdup assay
Parameters: key: below the threshold = too weak to quantify, mostly under pKd 3.1 to 4
Details: plain residues with an end cap or a label only (N-terminal biotin on a linker: ado-ado)

pKd	Binder
below the threshold	APIAGFSSFV [SDK2, Q58EX2]
below the threshold	QSYPSKHDYV [CLDN18, P56856]

Molecular target: DLG1_1, Q12959
Assay: holdup assay
Parameters: key: below the threshold = too weak to quantify, mostly under pKd 3.1 to 4
Details: plain residues with an end cap or a label only (N-terminal biotin on a linker: ado-ado)

pKd	Binder
4.21	APIAGFSSFV [SDK2, Q58EX2]
below the threshold	QSYPSKHDYV [CLDN18, P56856]

Molecular target: MAGI1_2, Q96QZ7
Assay: holdup assay
Parameters: key: below the threshold = too weak to quantify, mostly under pKd 3.1 to 4
Details: plain residues with an end cap or a label only (N-terminal biotin on a linker: ado-ado)

Chain of MAGI1_2, Q96QZ7 (Q96QZ7 456-580): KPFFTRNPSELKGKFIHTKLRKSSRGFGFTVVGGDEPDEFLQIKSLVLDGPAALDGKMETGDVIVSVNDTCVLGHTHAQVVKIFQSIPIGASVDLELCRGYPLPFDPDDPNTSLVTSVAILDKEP

pKd	Binder
below the threshold	APIAGFSSFV [SDK2, Q58EX2]
below the threshold	QSYPSKHDYV [CLDN18, P56856]

Molecular target: DLG2_2, Q15700
Assay: holdup assay
Parameters: key: below the threshold = too weak to quantify, mostly under pKd 3.1 to 4
Details: plain residues with an end cap or a label only (N-terminal biotin on a linker: ado-ado)

Chain of DLG2_2, Q15700 (Q15700 189-283): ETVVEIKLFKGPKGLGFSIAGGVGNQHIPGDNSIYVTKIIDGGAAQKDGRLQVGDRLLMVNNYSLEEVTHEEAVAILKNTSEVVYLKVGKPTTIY

pKd	Binder
3.86	APIAGFSSFV [SDK2, Q58EX2]
below the threshold	QSYPSKHDYV [CLDN18, P56856]

Molecular target: AHNAK1, Q09666
Assay: holdup assay
Parameters: key: below the threshold = too weak to quantify, mostly under pKd 3.1 to 4
Details: plain residues with an end cap or a label only (N-terminal biotin on a linker: ado-ado)

Chain of AHNAK1, Q09666 (Q09666 4-100): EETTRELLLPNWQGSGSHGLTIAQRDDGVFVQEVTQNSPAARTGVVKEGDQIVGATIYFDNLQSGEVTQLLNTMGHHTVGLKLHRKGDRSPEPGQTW

pKd	Binder
below the threshold	APIAGFSSFV [SDK2, Q58EX2]
below the threshold	QSYPSKHDYV [CLDN18, P56856]

Molecular target: T4, GRIP1_5, Q9Y3R0
Assay: holdup assay
Parameters: key: below the threshold = too weak to quantify, mostly under pKd 3.1 to 4
Details: plain residues with an end cap or a label only (N-terminal biotin on a linker: ado-ado)

pKd	Binder
below the threshold	APIAGFSSFV [SDK2, Q58EX2]
below the threshold	QSYPSKHDYV [CLDN18, P56856]

Molecular target: MAGI2_5, Q86UL8
Assay: holdup assay
Parameters: key: below the threshold = too weak to quantify, mostly under pKd 3.1 to 4
Details: plain residues with an end cap or a label only (N-terminal biotin on a linker: ado-ado)

Chain of MAGI2_5, Q86UL8 (Q86UL8 915-1017): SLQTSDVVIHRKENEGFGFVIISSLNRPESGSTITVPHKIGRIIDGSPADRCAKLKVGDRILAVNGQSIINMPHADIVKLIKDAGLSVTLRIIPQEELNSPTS

pKd	Binder
4.44	APIAGFSSFV [SDK2, Q58EX2]
below the threshold	QSYPSKHDYV [CLDN18, P56856]

Molecular target: PTPN3, P26045
Assay: holdup assay
Parameters: key: below the threshold = too weak to quantify, mostly under pKd 3.1 to 4
Details: plain residues with an end cap or a label only (N-terminal biotin on a linker: ado-ado)

Chain of PTPN3, P26045 (P26045 505-587): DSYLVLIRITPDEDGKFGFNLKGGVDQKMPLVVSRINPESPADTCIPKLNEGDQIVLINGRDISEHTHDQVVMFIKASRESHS

pKd	Binder
4.39	APIAGFSSFV [SDK2, Q58EX2]
below the threshold	QSYPSKHDYV [CLDN18, P56856]

Molecular target: GORASP1, Q9BQQ3
Assay: holdup assay
Parameters: key: below the threshold = too weak to quantify, mostly under pKd 3.1 to 4
Details: plain residues with an end cap or a label only (N-terminal biotin on a linker: ado-ado)

Chain of GORASP1, Q9BQQ3 (Q9BQQ3 1-208): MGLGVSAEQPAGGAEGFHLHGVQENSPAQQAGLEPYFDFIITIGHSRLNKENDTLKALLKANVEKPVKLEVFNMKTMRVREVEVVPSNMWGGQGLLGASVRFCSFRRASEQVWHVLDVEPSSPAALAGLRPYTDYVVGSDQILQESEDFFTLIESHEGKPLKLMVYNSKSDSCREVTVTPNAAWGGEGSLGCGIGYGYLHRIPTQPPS

pKd	Binder
3.75	APIAGFSSFV [SDK2, Q58EX2]
3.74	QSYPSKHDYV [CLDN18, P56856]

Molecular target: T5, PARD3B_1, Q8TEW8
Assay: holdup assay
Parameters: key: below the threshold = too weak to quantify, mostly under pKd 3.1 to 4
Details: plain residues with an end cap or a label only (N-terminal biotin on a linker: ado-ado)

pKd	Binder
3.75	APIAGFSSFV [SDK2, Q58EX2]
below the threshold	QSYPSKHDYV [CLDN18, P56856]

Molecular target: T6, RADIL, Q96JH8
Assay: holdup assay
Parameters: key: below the threshold = too weak to quantify, mostly under pKd 3.1 to 4
Details: plain residues with an end cap or a label only (N-terminal biotin on a linker: ado-ado)

pKd	Binder
5.17	APIAGFSSFV [SDK2, Q58EX2]
4.35	QSYPSKHDYV [CLDN18, P56856]

Molecular target: T7, SYNJ2BP, P57105
Assay: holdup assay
Parameters: key: below the threshold = too weak to quantify, mostly under pKd 3.1 to 4
Details: plain residues with an end cap or a label only (N-terminal biotin on a linker: ado-ado)

pKd	Binder
4.72	APIAGFSSFV [SDK2, Q58EX2]
below the threshold	QSYPSKHDYV [CLDN18, P56856]

Molecular target: T8, SHANK1, Q9Y566
Assay: holdup assay
Parameters: key: below the threshold = too weak to quantify, mostly under pKd 3.1 to 4
Details: plain residues with an end cap or a label only (N-terminal biotin on a linker: ado-ado)

pKd	Binder
below the threshold	APIAGFSSFV [SDK2, Q58EX2]
below the threshold	QSYPSKHDYV [CLDN18, P56856]

Molecular target: HTRA2, O43464
Assay: holdup assay
Parameters: key: below the threshold = too weak to quantify, mostly under pKd 3.1 to 4
Details: plain residues with an end cap or a label only (N-terminal biotin on a linker: ado-ado)

Chain of HTRA2, O43464 (O43464 355-458): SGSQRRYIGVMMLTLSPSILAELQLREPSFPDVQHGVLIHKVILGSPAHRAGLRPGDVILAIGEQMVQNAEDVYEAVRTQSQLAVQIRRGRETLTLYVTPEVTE

pKd	Binder
4.07	APIAGFSSFV [SDK2, Q58EX2]
3.71	QSYPSKHDYV [CLDN18, P56856]

Molecular target: Inadl_2, Q8NI35
Assay: holdup assay
Parameters: key: below the threshold = too weak to quantify, mostly under pKd 3.1 to 4
Details: plain residues with an end cap or a label only (N-terminal biotin on a linker: ado-ado)

Chain of Inadl_2, Q8NI35 (Q8NI35 238-335): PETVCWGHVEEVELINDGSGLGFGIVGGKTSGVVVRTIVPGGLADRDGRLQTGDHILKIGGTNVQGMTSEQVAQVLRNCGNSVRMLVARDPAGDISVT

pKd	Binder
below the threshold	APIAGFSSFV [SDK2, Q58EX2]
below the threshold	QSYPSKHDYV [CLDN18, P56856]

Molecular target: NHERF2_2, Q15599
Assay: holdup assay
Parameters: key: below the threshold = too weak to quantify, mostly under pKd 3.1 to 4
Details: plain residues with an end cap or a label only (N-terminal biotin on a linker: ado-ado)

Chain of NHERF2_2, Q15599 (Q15599 142-238): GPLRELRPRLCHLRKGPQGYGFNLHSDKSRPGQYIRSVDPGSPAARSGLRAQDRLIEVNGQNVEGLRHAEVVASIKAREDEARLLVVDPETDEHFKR

pKd	Binder
3.98	APIAGFSSFV [SDK2, Q58EX2]
below the threshold	QSYPSKHDYV [CLDN18, P56856]

Molecular target: DLG4_2, P78352
Assay: holdup assay
Parameters: key: below the threshold = too weak to quantify, mostly under pKd 3.1 to 4
Details: plain residues with an end cap or a label only (N-terminal biotin on a linker: ado-ado)

Chain of DLG4_2, P78352 (P78352 155-259): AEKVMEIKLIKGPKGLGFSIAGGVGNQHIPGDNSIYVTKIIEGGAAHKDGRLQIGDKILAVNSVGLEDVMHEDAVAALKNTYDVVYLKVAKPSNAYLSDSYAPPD

pKd	Binder
4.49	APIAGFSSFV [SDK2, Q58EX2]
3.56	QSYPSKHDYV [CLDN18, P56856]

Molecular target: MAGI1_1, Q96QZ7
Assay: holdup assay
Parameters: key: below the threshold = too weak to quantify, mostly under pKd 3.1 to 4
Details: plain residues with an end cap or a label only (N-terminal biotin on a linker: ado-ado)

Chain of MAGI1_1, Q96QZ7 (Q96QZ7 1-106): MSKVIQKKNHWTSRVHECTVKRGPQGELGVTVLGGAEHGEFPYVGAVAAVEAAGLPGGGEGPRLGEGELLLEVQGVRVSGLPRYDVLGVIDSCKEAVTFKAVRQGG

pKd	Binder
below the threshold	APIAGFSSFV [SDK2, Q58EX2]
below the threshold	QSYPSKHDYV [CLDN18, P56856]

Molecular target: Inadl_9, Q8NI35
Assay: holdup assay
Parameters: key: below the threshold = too weak to quantify, mostly under pKd 3.1 to 4
Details: plain residues with an end cap or a label only (N-terminal biotin on a linker: ado-ado)

Chain of Inadl_9, Q8NI35 (Q8NI35 1530-1615): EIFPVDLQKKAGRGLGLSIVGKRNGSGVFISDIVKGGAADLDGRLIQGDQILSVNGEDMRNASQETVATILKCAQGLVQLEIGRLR

pKd	Binder
3.96	APIAGFSSFV [SDK2, Q58EX2]
4.12	QSYPSKHDYV [CLDN18, P56856]

Molecular target: T9, DLG3_1, Q92796
Assay: holdup assay
Parameters: key: below the threshold = too weak to quantify, mostly under pKd 3.1 to 4
Details: plain residues with an end cap or a label only (N-terminal biotin on a linker: ado-ado)

pKd	Binder
3.88	APIAGFSSFV [SDK2, Q58EX2]
below the threshold	QSYPSKHDYV [CLDN18, P56856]

Molecular target: PARD3_3, Q8TEW0
Assay: holdup assay
Parameters: key: below the threshold = too weak to quantify, mostly under pKd 3.1 to 4
Details: plain residues with an end cap or a label only (N-terminal biotin on a linker: ado-ado)

Chain of PARD3_3, Q8TEW0 (Q8TEW0 582-685): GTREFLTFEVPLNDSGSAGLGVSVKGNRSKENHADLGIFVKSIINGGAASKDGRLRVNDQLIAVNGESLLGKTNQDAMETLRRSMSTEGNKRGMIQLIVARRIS

pKd	Binder
3.56	APIAGFSSFV [SDK2, Q58EX2]
3.69	QSYPSKHDYV [CLDN18, P56856]

Molecular target: T10, LIN7C, Q9NUP9
Assay: holdup assay
Parameters: key: below the threshold = too weak to quantify, mostly under pKd 3.1 to 4
Details: plain residues with an end cap or a label only (N-terminal biotin on a linker: ado-ado)

pKd	Binder
below the threshold	APIAGFSSFV [SDK2, Q58EX2]
below the threshold	QSYPSKHDYV [CLDN18, P56856]
